Results: patent publication US20240299570A1 (CELGENE, published 2024)

Biological target: T1, BCMA on BCMA-positive myeloma cell lines (NCI-H929, ARP-1, U266B1) (Homo sapiens (Human), UniProt Q02223 1-184)
T1 sequence: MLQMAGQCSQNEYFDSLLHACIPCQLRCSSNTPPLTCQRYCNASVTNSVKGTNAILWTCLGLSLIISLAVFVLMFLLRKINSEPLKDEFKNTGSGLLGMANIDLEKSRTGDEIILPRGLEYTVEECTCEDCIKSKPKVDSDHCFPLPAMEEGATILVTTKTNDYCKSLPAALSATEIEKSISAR
Assay: cell-based or functional assay

B1: Antibody 2265-F02 (antibody, V domains shown)
VH: EVQLVESGGGLVQPGGSLRLSCAASGFNISAPGIHWVRQAPGKGLEWVGFINPAGGYTDYADSVKGRFTISADTSKNTAYLQMNSLRAEDTAVYYCARDYIRQYWTYVLDYWGQGTLVTVSS
VL: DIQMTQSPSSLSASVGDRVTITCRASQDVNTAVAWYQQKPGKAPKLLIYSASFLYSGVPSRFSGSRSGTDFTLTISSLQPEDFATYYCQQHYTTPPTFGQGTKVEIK
ARP-1, Conjugate M 2° antibody cell killing, EC50: 1.9 nM
U266B1, Conjugate M 2° antibody cell killing, EC50: 0.9 nM
